Reference: IntAct's records for PubMed 25910212

B1: Progranulin (Homo sapiens), P28799 (parent)
chain: MWTLVSWVALTAGLVAGTRCPDGQFCPVACCLDPGGASYSCCRPLLDKWPTTLSRHLGGPCQVDAHCSAGHSCIFTVSGTSSCCPFPEAVACGDGHHCCPRGFHCSADGRSCFQRSGNNSVGAIQCPDSQFECPDFSTCCVMVDGSWGCCPMPQASCCEDRVHCCPHGAFCDLVHTRCITPTGTHPLAKKLPAQRTNRAVALSSSVMCPDARSRCPDGSTCCELPSGKYGCCPMPNATCCSDHLHCCPQDTVCDLIQSKCLSKENATTDLLTKLPAHTVGDVKCDMEVSCPDGYTCCRLQSGAWGCCPFTQAVCCEDHIHCCPAGFTCDTQKGTCEQGPHQVPWMEKAPAHLSLPDPQALKRDVPCDNVSSCPSSDTCCQLTSGEWGCCPIPEAVCCSDHQHCCPQGYTCVAEGQCQRGSEIVAGLEKMPARRASLSHPRDIGCDQHTSCPVGQTCCPSLGGSWACCQLPHAVCCEDRQHCCPAGYTCNVKARSCEKEVVSAQPATFLARSPHVGVKDVECGEGHFCHDNQTCCRDNRQGWACCPYRQGVCCADRRHCCPAGFRCAARGTKCLRREAPRWDAPLRDPALRQLL

How the values were obtained:
hxa1_human HOXA1, P49639 = variants of: B1; conditions: with hxa1_human HOXA1, P49639
ARFGAP1, Q8N6T3-3 = variants of: B1; conditions: with ARFGAP1, Q8N6T3-3
sgta_human SGTA, O43765 = variants of: B1; conditions: with sgta_human SGTA
otx1_human OTX1, P32242 = variants of: B1; conditions: with otx1_human OTX1, P32242
[1] = variants of: B1; conditions: with ccd33_human CCDC33, Q8N5R6
Sequence of ccd33_human CCDC33, Q8N5R6 (Q8N5R6 whole entry): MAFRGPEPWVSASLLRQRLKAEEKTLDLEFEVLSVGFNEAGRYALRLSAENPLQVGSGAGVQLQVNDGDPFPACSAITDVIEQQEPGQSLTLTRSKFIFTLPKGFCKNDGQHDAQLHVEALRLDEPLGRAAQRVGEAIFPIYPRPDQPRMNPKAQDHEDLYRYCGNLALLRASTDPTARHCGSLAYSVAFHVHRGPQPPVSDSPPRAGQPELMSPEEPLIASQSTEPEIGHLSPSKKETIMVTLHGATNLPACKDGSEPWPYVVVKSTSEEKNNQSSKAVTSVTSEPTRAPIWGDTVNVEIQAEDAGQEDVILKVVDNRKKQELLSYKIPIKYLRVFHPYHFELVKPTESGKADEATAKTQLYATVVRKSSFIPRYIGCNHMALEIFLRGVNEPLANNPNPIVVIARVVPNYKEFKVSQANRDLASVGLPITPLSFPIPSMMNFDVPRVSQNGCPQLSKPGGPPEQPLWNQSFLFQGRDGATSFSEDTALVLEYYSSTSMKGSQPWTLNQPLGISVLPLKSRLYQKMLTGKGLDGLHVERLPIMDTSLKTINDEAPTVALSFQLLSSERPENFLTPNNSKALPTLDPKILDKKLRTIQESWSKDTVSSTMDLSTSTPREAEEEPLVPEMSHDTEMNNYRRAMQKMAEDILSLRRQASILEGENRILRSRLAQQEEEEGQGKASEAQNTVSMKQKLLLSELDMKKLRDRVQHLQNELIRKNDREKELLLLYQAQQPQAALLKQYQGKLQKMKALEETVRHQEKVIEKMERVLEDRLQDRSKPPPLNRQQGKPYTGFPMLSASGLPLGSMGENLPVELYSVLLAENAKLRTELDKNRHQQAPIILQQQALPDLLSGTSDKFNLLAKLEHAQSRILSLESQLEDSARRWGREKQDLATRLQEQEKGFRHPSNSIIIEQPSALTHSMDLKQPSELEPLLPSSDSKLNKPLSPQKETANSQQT

Sequence of ARFGAP1, Q8N6T3-3 (Q8N6T3 other isoform, or with tags, fused parts or gaps): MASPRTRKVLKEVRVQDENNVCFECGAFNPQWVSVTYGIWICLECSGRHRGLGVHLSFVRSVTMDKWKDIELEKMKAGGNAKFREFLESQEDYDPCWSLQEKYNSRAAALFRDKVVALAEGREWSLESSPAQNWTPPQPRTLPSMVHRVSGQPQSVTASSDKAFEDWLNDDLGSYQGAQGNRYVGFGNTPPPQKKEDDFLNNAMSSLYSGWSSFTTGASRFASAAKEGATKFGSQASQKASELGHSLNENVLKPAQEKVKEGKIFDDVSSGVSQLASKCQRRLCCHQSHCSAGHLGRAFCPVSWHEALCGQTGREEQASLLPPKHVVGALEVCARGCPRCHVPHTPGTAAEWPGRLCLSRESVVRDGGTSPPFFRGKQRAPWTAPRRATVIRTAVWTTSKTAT
Sequence of sgta_human SGTA, O43765 (O43765 whole entry): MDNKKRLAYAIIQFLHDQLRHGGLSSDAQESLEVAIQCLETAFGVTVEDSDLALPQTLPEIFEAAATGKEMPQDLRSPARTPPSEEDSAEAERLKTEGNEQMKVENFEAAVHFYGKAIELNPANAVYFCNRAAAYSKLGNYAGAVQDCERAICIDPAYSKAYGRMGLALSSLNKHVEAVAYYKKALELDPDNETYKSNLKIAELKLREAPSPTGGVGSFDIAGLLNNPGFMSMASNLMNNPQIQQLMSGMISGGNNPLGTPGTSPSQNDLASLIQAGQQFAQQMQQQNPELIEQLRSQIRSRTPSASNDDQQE
Sequence of otx1_human OTX1, P32242 (P32242 whole entry): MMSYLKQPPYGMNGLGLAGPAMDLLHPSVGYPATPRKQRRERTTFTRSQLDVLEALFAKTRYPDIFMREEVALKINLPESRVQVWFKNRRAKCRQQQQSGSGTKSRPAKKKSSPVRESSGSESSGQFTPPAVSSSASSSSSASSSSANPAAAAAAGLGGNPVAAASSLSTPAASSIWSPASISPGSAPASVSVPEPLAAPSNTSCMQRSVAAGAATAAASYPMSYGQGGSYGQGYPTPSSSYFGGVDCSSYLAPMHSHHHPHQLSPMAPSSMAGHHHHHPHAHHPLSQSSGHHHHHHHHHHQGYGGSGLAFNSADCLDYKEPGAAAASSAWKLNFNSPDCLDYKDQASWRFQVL
Sequence of hxa1_human HOXA1, P49639 (P49639 whole entry): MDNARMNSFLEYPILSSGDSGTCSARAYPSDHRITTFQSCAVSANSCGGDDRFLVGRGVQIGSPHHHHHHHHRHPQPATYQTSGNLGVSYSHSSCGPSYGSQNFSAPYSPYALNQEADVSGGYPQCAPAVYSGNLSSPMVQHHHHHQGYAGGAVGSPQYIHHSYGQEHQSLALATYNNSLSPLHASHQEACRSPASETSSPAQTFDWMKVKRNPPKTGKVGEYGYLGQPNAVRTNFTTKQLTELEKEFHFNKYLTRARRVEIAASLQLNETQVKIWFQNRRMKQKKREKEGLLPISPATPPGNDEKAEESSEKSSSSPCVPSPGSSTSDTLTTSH

| effect of a mutation on the interaction (hxa1_human HOXA1, P49639) | effect of a mutation on the interaction (ARFGAP1, Q8N6T3-3) | effect of a mutation on the interaction (sgta_human SGTA, O43765) | effect of a mutation on the interaction (otx1_human OTX1, P32242) | effect of a mutation on the interaction [1] | Variant |
| --- | --- | --- | --- | --- | --- |
| disrupting interaction strength | disrupting interaction strength | disrupting interaction strength | with no effect | disrupting interaction strength | MWTLVSWVALTAGLVAGTRCPDGQFCPVACCLDPGGASYSCCRPLLDKWPTTLSRHLGGPCQVDAHCSAGHSCIFTVSGTSSCCPFPEAVACGDGHHCCPRGFHCSADGRSCFQRSGNNSVGAIQCPDSQFECPDFSTCCVMVDGSWGCCPMPQASCCEDRVHCCPHGAFCDLVHTRCITPTGTHPLAKKLPAQRTNRAVALSSSVMCPDARSRCPDGSTCCELPSGKYGCCPMPNATCCSDHLHCCPQDTVCDLIQSKCLSKENATTDLLTKLPAHTVGDVKCDMEVSCPDGYTCCRLQSGAWGCCPFTQAVCCEDHIHCCPAGFTCDTQKGTCEQGPHQVPWMEKAPAHLSLPDPQALKRDVPCDNVSSCPSSDTCCQLTSGEWGCCPIPEAVCCSDHQHCCPQGYTCVAEGQCQRGSEIVAGLEKMPACRASLSHPRDIGCDQHTSCPVGQTCCPSLGGSWACCQLPHAVCCEDRQHCCPAGYTCNVKARSCEKEVVSAQPATFLARSPHVGVKDVECGEGHFCHDNQTCCRDNRQGWACCPYRQGVCCADRRHCCPAGFRCAARGTKCLRREAPRWDAPLRDPALRQLL [R432C] |
| with no effect | with no effect | with no effect | with no effect | with no effect | MWTLVSWVALTAGLVAGTRCPDGQFCPVACCLDPGGASYSCCRPLLDKWPTTLSRHLGGPCQVDAHCSAGHSCIFTVSGTSSCCPFPEAVACGDGHHCCPRGFHCSADGRSCFQRSGNNSVGAIQCPDSQFECPDFSTCCVMVDGSWGCCPMPQASCCEDRVHCCPHGAFCDLVHTRCITPTGTHPLAKKLPAQRTNRAVALSSSVMCPDARSRCPDGSTCCELPSGKYGCCPMPNATCCSDHLHCCLQDTVCDLIQSKCLSKENATTDLLTKLPAHTVGDVKCDMEVSCPDGYTCCRLQSGAWGCCPFTQAVCCEDHIHCCPAGFTCDTQKGTCEQGPHQVPWMEKAPAHLSLPDPQALKRDVPCDNVSSCPSSDTCCQLTSGEWGCCPIPEAVCCSDHQHCCPQGYTCVAEGQCQRGSEIVAGLEKMPARRASLSHPRDIGCDQHTSCPVGQTCCPSLGGSWACCQLPHAVCCEDRQHCCPAGYTCNVKARSCEKEVVSAQPATFLARSPHVGVKDVECGEGHFCHDNQTCCRDNRQGWACCPYRQGVCCADRRHCCPAGFRCAARGTKCLRREAPRWDAPLRDPALRQLL [P248L] |
